What all share (assay): SFM DNA tethering
In data set [1] the target is RAD50;MRE11 (Homo sapiens;Homo sapiens) (UniProt Q92878+P49959).
Data set [2] concerns the target RAD50;MRE11;NBS1 (Homo sapiens;Homo sapiens;Homo sapiens) (UniProt Q92878+P49959+O60934).
Data set [3] addresses RAD50;NBS1 (Homo sapiens;Homo sapiens) (UniProt Q92878+O60934).

The results in this text go back to paper PMC2655673.

As to 3.0-kb linear DNA fragment, the binding signal (% DNA in tethered complexes) in data set [1] is 16; in data set [2], 20; in data set [3] it was 30.
